Measured values: patent US20060121535

Columns and labels:
[1] = target: GST-Crkl (full length), P46109
[2] = target: T1, Abl peptide NH2-EAIYAAPFAKKK-COOH (SEQ. ID. NO: 4), acrylic-labeled, photocleavable
T1 chain: EAIYAAPFAKKK

[3] = target: T2, GST-Crkl (intra SH3), P46109
T2 chain: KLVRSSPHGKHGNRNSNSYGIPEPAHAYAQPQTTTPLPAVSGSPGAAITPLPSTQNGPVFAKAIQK

Sequence of GST-Crkl (SH3), P46109 (P46109 120-303): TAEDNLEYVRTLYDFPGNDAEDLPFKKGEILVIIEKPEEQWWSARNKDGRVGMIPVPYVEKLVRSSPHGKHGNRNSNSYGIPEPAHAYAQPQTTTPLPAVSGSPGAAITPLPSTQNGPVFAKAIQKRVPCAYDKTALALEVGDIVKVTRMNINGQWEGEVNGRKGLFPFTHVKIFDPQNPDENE
Sequence of GST-Crkl (full length), P46109 (P46109 whole entry): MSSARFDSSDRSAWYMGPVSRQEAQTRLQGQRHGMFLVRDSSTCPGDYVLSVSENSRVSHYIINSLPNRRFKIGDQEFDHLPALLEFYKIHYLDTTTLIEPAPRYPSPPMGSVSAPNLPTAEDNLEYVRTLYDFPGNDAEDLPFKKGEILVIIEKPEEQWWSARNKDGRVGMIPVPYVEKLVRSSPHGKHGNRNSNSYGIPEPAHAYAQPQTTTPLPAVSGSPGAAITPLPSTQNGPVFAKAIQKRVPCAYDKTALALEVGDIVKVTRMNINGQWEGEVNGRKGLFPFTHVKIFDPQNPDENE

B1: v-Abl tyrosine kinase (Calbiochem / EMD Biosciences) (protein)
chain: YITPVNSLEKHSWYHGPVSRNAAEYLLSSGINGSFLVRESESSPGQRSISLRYEGRVYHYRINTASDGKLYVSSESRFNTLAELVHHHSTVADGLITTLHYPAPKRNKPTIYGVSPNYDKWEMERTDITMKHKLGGGQYGEVYEGVWKKYSLTVAVKTLKEDTMEVEEFLKEAAVMKEIKHPNLVQLLGVCTREPPFYIITEFMTYGNLLDYLRECNRQEVSAVVLLYMATQISSAMEYLEKKNFIHRDLAARNCLVGENHLVKVADFGLSRLMTGDTYTAHAGAKFPIKWTAPESLAYNKFSIKSDVWAFGVLLWEIATYGMSPYPGIDLSQVYELLEKDYRMERPEGCPEKVYELMRACWQWNPSDRPSFAEIHQAFETMFQESSISD
With B1 the “tyrosine phosphorylation of bead-immobilized substrate, anti-phosphotyrosine Western blot” value [1] was “GST-Crkl (full-length) is not phosphorylated by v-Abl”, the “tyrosine phosphorylation of surface spots, ECL film (Example 9)” value [1] was “Qualitative detection of phosphorylated tyrosine for the 833 and 1660 ng spots of the two larger forms of GST-Crkl can be seen” and the “tyrosine phosphorylation on protein array, ECL” value [1] was “Phosphorylation of GST-Crkl (full-length) is minimal (data not shown)”. For the same protein, the “extent of phosphorylation of the immobilized peptide, MALDI mass spectrometry” value [2] was “the extent of phosphorylation was estimated to be approximately 90%”, the “tyrosine phosphorylation of bead-immobilized substrate, anti-phosphotyrosine Western blot” value (GST-Crkl (SH3), P46109) was “v-Abl displays tyrosine kinase activity toward GST-Crkl (SH3) and GST-Crkl (intra SH3) in the absence of imatinib” and the “tyrosine phosphorylation of surface spots, ECL film (Example 9)” value (GST-Crkl (SH3), P46109) was “Qualitative detection of phosphorylated tyrosine for the 833 and 1660 ng spots of the two larger forms of GST-Crkl can be seen”. For the same protein, the “tyrosine phosphorylation on protein array, ECL, 2 h reaction” value (GST-Crkl (SH3), P46109) was “v-Abl demonstrates a slight preference for the GST-Crkl (SH3) substrate relative to the GST-Crkl (intra SH3) substrate”, the “tyrosine phosphorylation of bead-immobilized substrate, anti-phosphotyrosine Western blot” value [3] was “v-Abl displays tyrosine kinase activity toward GST-Crkl (SH3) and GST-Crkl (intra SH3) in the absence of imatinib” and the “tyrosine phosphorylation on protein array, ECL, 2 h reaction” value [3] was “v-Abl demonstrates a slight preference for the GST-Crkl (SH3) substrate relative to the GST-Crkl (intra SH3) substrate”.
